In publication PMC9283966:

Assays:
Conditions in all cases: glycan lost
[1] = Western blot of conditioned medium
[2] = Western blot of thrombin-antithrombin complexes
[3] = chromogenic anti-FXa assay, recombinant protein
[4] = control: β antithrombin (Ala169)
[5] = control: wild type (Ser169 background)

| Substance | expression_or_secretion [1, 4] | other: protease inhibitory activity [2, 4] | other: protease inhibitory activity, other: anti-FXa activity [3, 4] | expression_or_secretion [1, 5] | other: protease inhibitory activity [2, 5] | other: protease inhibitory activity, other: anti-FXa activity [3, 5] |
| --- | --- | --- | --- | --- | --- | --- |
| antithrombin: His224 in β background | decreases | abolishes | abolishes |  |  |  |
| antithrombin: p.Asn224His |  |  |  | decreases | no change | no change, 1.38 vs 1.39 |
